Changes are numbered by the printed parent chain.
B1: Hu147-11wk (antibody, human IgG1, kappa, V domains shown)
VH: EVQLVESGGGLVQPGGSLRLSCAASGFTFSTYAMNWVRQAPGKGLEWVGRIRTKSNNYATYYADSVKDRFTISRDDSKNSLYLQMNSLKTEDTAVYYCVETGFAYWDQGTLVTVSS
VL: EIVLTQSPATLSLSPGERATLSCSASSSVSYMHWFQQKPGQSPRLLIYSTSNLASGIPARFSGSGSGTDYTLTISSLEPEDFAVYYCQQRSSYPLTFGQGTKLEIKR
B2: Hu147-12wk (antibody, human IgG1, kappa, V domains shown)
VH: B1 VH
VL: B1 VL with R44K
B3: Hu147-15wk (antibody, human IgG1, kappa, V domains shown)
VH: B1 VH
VL: DIQLTQSPSSLSASVGDRVTITCSASSSVSYMHWFQQKPGKSPKLWIYSTSNLASGVPSRFSGSGSGTDYTLTISSLQPEDFATYYCQQRSSYPLTFGQGTKLEIKR
B4: Hu147-31wk (antibody, human IgG1, kappa, V domains shown)
VH: B1 VH with T28S, S30N, G49A, K78E, N79S
VL: B1 VL
B5: Hu147-33wk (antibody, human IgG1, kappa, V domains shown)
VH: B1 VH with T28S, S30N, G49A, K78E, N79S
VL: B1 VL with R44K, L46W, I57V
B6: Hu147-32wk (antibody, human IgG1, kappa, V domains shown)
VH: B1 VH with T28S, S30N, G49A, K78E, N79S
VL: B1 VL with R44K
B7: Hu147-13wk (antibody, human IgG1, kappa, V domains shown)
VH: B1 VH
VL: B1 VL with R44K, L46W, I57V
B8: Hu147-22wk (antibody, human IgG1, kappa, V domains shown)
VH: B1 VH with S30N, G49A
VL: B1 VL with R44K
B9: Hu147-21wk (antibody, human IgG1, kappa, V domains shown)
VH: B1 VH with S30N, G49A
VL: B1 VL
B10: Hu147-14wk (antibody, human IgG1, kappa, V domains shown)
VH: B1 VH
VL: B3 VL with L4M, W46L
B11: Hu147-34wk (antibody, human IgG1, kappa, V domains shown)
VH: B1 VH with T28S, S30N, G49A, K78E, N79S
VL: B3 VL with L4M, W46L
B12: Hu147-24wk (antibody, human IgG1, kappa, V domains shown)
VH: B1 VH with S30N, G49A
VL: B3 VL with L4M, W46L
B13: Hu147-23wk (antibody, human IgG1, kappa, V domains shown)
VH: B1 VH with S30N, G49A
VL: B1 VL with R44K, L46W, I57V
B14: Hu164-57wl (antibody, human IgG1, lambda, V domains shown)
VH: EVTLKESGPVLVKPTETLTLTCTVSGFSLSTFGVHWIRQPPGKALEWLAVIWRRGGTDYNAAFMSRLTISKDTSKSQVVLTMTNMDPVDTATYYCARDGGFDYWGQGTTVTVSS
VL: ETVVTQEPSLTVSPGGTVTLTCRSSIGAVTTSNYANWVQQKPGQAFRGLIGGTSNRAPWTPARFSGSLLGGKAALTLSGVQPEDEAEYYCALWYSTHYVFGGGTKLTVLG
B15: Hu164-87wl (antibody, human IgG1, lambda, V domains shown)
VH: EVQLQESGPGLVKPSQTLSLTCTVSGFSISTFGVHWIRQHPGKGLEWLGVIWRRGGTDYNAAFMSRLTISKDTSKNQVSFKLSSVTAADTAVYYCARDGGFDYWGQGTTVTVSS
VL: B14 VL
B16: Hu164-69wl (antibody, human IgG1, lambda, V domains shown)
VH: B14 VH with A44G, A49G, L80F
VL: ESVVTQPPSVSGAPGQRVTISCRSSIGAVTTSNYANWVQQLPGTAFKGLIGGTSNRAPGVPDRFSGSKSGTSASLAITGLQAEDEADYYCALWYSTHYVFGGGTKLTVLG
B17: Hu164-68wl (antibody, human IgG1, lambda, V domains shown)
VH: B14 VH with A44G, A49G, L80F
VL: ETVVTQEPSFSVSPGGTVTLTCRSSIGAVTTSNYANWVQQTPGQAFRGLIGGTSNRAPGVPDRFSGSILGNKAALTITGAQADDESDYYCALWYSTHYVFGGGTKLTVLG
B18: Hu164-77wl (antibody, human IgG1, lambda, V domains shown)
VH: B15 VH with L48I, L67V, F80L
VL: B14 VL
B19: Hu95-51yk (antibody, human IgG1, kappa, V domains shown)
VH: EVQLVQSGAEVKKPGASVKVSCRASGFTFTNYAIHWVKQAPGQRLEWMGLVYPYTGGTAYNQKFKDKVTLTFDTSASTAYMELSSLRSEDTAVYYCARWGMIPGTNSYFDVWGQGTTVTVSS
VL: EIVLTQSPATLSLSPGERATLSCRASSSVSYIHWYQQKPGQAPRPWIYATSNLASGIPARFSGSGSGTDYTLTISRLEPEDFAVYYCQQWNSNPWTFGGGTKVEIKR

Molecular target: Cynomolgus monkey CTGF-Fc (cynomolgus monkey)
Sequence (P29279 other isoform, or with tags, fused parts or gaps limits assumed): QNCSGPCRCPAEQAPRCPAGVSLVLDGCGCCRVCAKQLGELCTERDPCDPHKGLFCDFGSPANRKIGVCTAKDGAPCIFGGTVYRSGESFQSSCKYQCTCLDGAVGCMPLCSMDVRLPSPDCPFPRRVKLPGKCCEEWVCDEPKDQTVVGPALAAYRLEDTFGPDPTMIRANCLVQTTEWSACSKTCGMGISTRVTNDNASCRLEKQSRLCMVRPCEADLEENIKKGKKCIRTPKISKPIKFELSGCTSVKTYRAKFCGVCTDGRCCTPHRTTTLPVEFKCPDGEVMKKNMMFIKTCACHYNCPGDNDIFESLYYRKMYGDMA
Assay: ELISA, cyno-CTGF-mFc captured by anti-mFc

Row | EC50 [nM] | Binder
1 | 0.052 | B1
2 | 0.062 | B2
3 | 0.053 | B3
4 | 0.07 | B4
5 | 0.044 | B5
6 | 0.079 | B6
7 | 0.043 | B7
8 | 0.073 | B8
9 | 0.053 | B9
10 | 0.077 | B10
11 | 0.144 | B11
12 | 0.08 | B12
13 | 0.063 | B13
14 | 0.029 | B14
15 | 0.034 | B15
16 | 0.032 | B16
17 | 0.036 | B17
18 | 0.038 | B18
19 | 0.059 | B19

From patent US20230416352A1
